Test results: US8449872B2, “Polymer conjugates of nesiritide peptides” (priority 2008, dated 2013)
“Also recorded” adds a separate entry of the source. Like-named read-outs stand apart in the source and are kept apart here.

Key:
[1] = rat, in vivo, iv
Experimental: (§1) Thirty one (31) adult male Sprague-Dawley rats with indwelling jugular vein and carotid artery catheters (JVC/CAC) (Charles River Labs, Hollister, Calif.) were utilized for this study. […] All animals were food fasted overnight. Prior to dosing, the rats were weighed, the tails and cage cards were labeled for identification and the doses were calculated. Anesthesia was induced and maintained with 3.0-5.0% isoflurane. The JVC and CAC were externalized and flushed with HEP/saline (10 IU/mL HEP/mL saline). The predose sample was collected from the JVC and the catheters were plugged, and labeled to identify the jugular vein and carotid artery. When all of the animals had recovered from anesthesia and the predose samples were processed, the animals were dosed, intravenously (IV) via the JVC using a 1 mL syringe containing the appropriate test article and the dead volume of the catheter was flushed with 0.9% saline to ensure the animals received the correct dose.
(§2) Following a single IV dose, blood samples were collected from groups 1A, 2A, 3A and 4A, at 0 (pre-dose collected as described above), 0.03, 0.33, 2.0, 6.0, 12.0 and 72.0 hours and from Groups 1B, 2B, 3B and 4B at 0 (pre-dose collected as described above), 0.17, 1.0, 4.0, 8.0, 24.0 and 48.0 hours via the carotid artery catheter and processed as stated in the protocol. Following the last collection point, the animals were euthanized.
(§3) Concentrations in plasma that were below LLOQ were replaced with zeros prior to generating Tables and PK analysis. In the event that more than half (>50%) of the data points were below zero, mean concentration will not be shown in the figures or used in PK parameters estimation. The following PK parameters were estimated using plasma concentration-time profile of each animal:

[2] = Pharmacokinetic study after a single intravenous dose in rats (noncompartmental analysis of plasma concentrations); conditions: for Cmax: test article in plasma (non-released PEG-BNP, or native BNP), equivalent protein mass 0.459 mg/kg IV
Experimental: as §1, §2, §3

[3] = non-released PEG-BNP in plasma, 0.459 mg/kg IV, Sprague Dawley rats
[4] = BNP in plasma (released from conjugate or given as native BNP), 0.459 mg/kg IV, rats

CC[C@H](C)[C@@H]1NC(=O)[C@H](CCCNC(=N)N)NC(=O)[C@H](CC(=O)O)NC(=O)[C@H](CCSC)NC(=O)[C@H](CCCCN)NC(=O)[C@H](CCCNC(=N)N)NC(=O)CNC(=O)[C@H](Cc2ccccc2)NC(=O)[C@@H](NC(=O)CNC(=O)[C@H](CO)NC(=O)CNC(=O)[C@H](CCC(N)=O)NC(=O)[C@@H](NC(=O)[C@H](CCSC)NC(=O)[C@H](CCCCN)NC(=O)[C@@H]2CCCN2C(=O)[C@@H](N)CO)C(C)C)CSSC[C@@H](C(=O)N[C@@H](CCCCN)C(=O)N[C@H](C(=O)N[C@@H](CC(C)C)C(=O)N[C@@H](CCCN=C(N)N)C(=O)N[C@@H](CCCN=C(N)N)C(=O)N[C@@H](Cc2cnc[nH]2)C(=O)O)C(C)C)NC(=O)CNC(=O)[C@H](CC(C)C)NC(=O)CNC(=O)[C@H](CO)NC(=O)[C@H](CO)NC(=O)[C@H](CO)NC(=O)[C@H](CO)NC1=O [BNP, Nesiritide]
Cmax ([1]; 0.459 mg/kg): 0 µg/mL | measurable BNP in plasma (in words) ([2]; following parent BNP administration IV, rats): No measurable plasma concentrations; also recorded: No BNP was measurable

ButyrALD-10K-BNP: non-releasable mono-PEG conjugate (N-terminus directed) of BNP-32 with mPEG-Butyr-ALD-10K
AUCINF [2, 3]: 0.0966 µg·h/mL | CL [2, 3]: 4.75 L/h/kg | MRTlast [2, 3]: 0.368 h | T½ [2, 3]: 0.272 h | Vss [2, 3]: 2.27 L/kg | Cmax ([2]; Sprague Dawley rats): 0.355 µg/mL

ButyrALD-40K-BNP: non-releasable mono-PEG conjugate (N-terminus directed) of BNP-32 with mPEG2-Butyr-ALD 40 kDa
peak plasma concentration compared with ButyrALD-10K-BNP (in words) [1]: higher | clearance compared with ButyrALD-10K-BNP (in words) ([2]; non-releasable PEG constructs, IV, rats): lower | half-life compared with ButyrALD-10K-BNP (in words) ([2]; non-releasable PEG constructs, IV, rats, pooled data): longer | AUCINF [2, 3]: 41.3 µg·h/mL | CL [2, 3]: 0.0111 L/h/kg | MRTlast [2, 3]: 24.0 h | T½ [2, 3]: 26.1 h | Vss [2, 3]: 0.631 L/kg | Cmax ([2]; Sprague Dawley rats): 1.41 µg/mL

C2-FMOC-PEG2-40K-BNP: releasable mono-PEG conjugate of BNP-32 made with mPEG2-C2-fmoc-NHS-40K; hydrolysis generates unmodified peptide
Peak concentrations of the conjugate in plasma ([1]; male, Sprague-Dawley): 1300 ng/mL | time of peak concentrations of released BNP [1]: 0.3 h | plasma conjugate concentrations remained above ([1]; 24 h): above 100 ng/mL | AUCINF [2, 4]: 0.162 µg·h/mL | MRTlast [2, 4]: 1.84 h | Tmax [2, 4]: 0.33 h | half-life of the conjugate in plasma ([2]; intact C2-FMOC-PEG2-40K-BNP in plasma, IV, rats): 15.0 h
